± gives the uncertainty stated by the source.
Test: protein stability index of a GFP-peptide fusion (yeast GPS) (PSI 1-4); higher = more stable; sorted into four equal gates, so the index is relative within each strain
Outline: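 Tiled 17-residue yeast protein peptides were fused downstream of GFP in a plasmid that also expresses Cherry, and the pooled library was carried in yeast. Mid-log cultures in leucine-free medium were sorted into four equal gates by GFP/Cherry fluorescence ratio, and plasmids from each gate were PCR-amplified and Illumina-sequenced, with reads assigned to strains by barcodes. The protein stability index for each peptide was each gate's read frequency times its gate number, summed.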

Sequence	protein stability index (doa10∆)	protein stability index (pdr5∆)	protein stability index (san1∆)	protein stability index (ubr1∆)
KVAEVKKLEGTIEYQKL [RPT4]	3.13 ± 0.12	3.16 ± 0.11	3.17 ± 0.074	3.57 ± 0.082
KVAPAPFGAKSTKSNKA [RPL8B]	2.6 ± 0.085	2.78 ± 0.073	2.74 ± 0.061	2.7 ± 0.043
KVDNDLRIELQSVYNDE [SRB8]	3.16 ± 0.22	3.29 ± 0.24	3.26 ± 0.12	–
KVEIKKVNSRDDSFFNE [PRP28]	3.16 ± 0.082	3.31 ± 0.082	2.71 ± 0.092	3.38 ± 0.12
KVESQETLNDTIERSLI [YCS4]	2.73 ± 0.092	2.99 ± 0.071	2.96 ± 0.072	2.97 ± 0.057
KVFSLDPQYLVDDLRPE [ASC1]	2.94 ± 0.16	2.84 ± 0.1	3.04 ± 0.09	3.15 ± 0.078
KVISNPLLARKQFVVDV [RPS24A]	1.95 ± 0.088	1.94 ± 0.048	2.14 ± 0.076	2.07 ± 0.05
KVKILEQIDENWSKEDL [SWI3]	3.12 ± 0.079	2.92 ± 0.091	2.88 ± 0.097	2.89 ± 0.091
KVKNQGADVTNTTQDNG [YCS4]	3.17 ± 0.086	3.19 ± 0.084	3.11 ± 0.049	3.2 ± 0.057
KVLCLAVAVGNVEMEED [RPL1A]	1.58 ± 0.064	1.67 ± 0.053	1.33 ± 0.09	1.68 ± 0.044
KVLNEISKTTLTLDPRY [RPN3]	2.88 ± 0.085	2.99 ± 0.055	2.89 ± 0.05	3.2 ± 0.069
KVSSASAAASESDVAKQ [RPL16B]	2.93 ± 0.067	2.79 ± 0.055	2.04 ± 0.09	2.97 ± 0.065
KVTQMTPAPKISYKKGA [RPL36B]	3.12 ± 0.13	3.27 ± 0.11	3.31 ± 0.061	3.21 ± 0.1
KVVIPNLLCYYNLRSLN [RPN3]	2.44 ± 0.19	2.54 ± 0.081	2.74 ± 0.13	2.65 ± 0.1
KVYYFQGGNNELGTAVG [RPL30]	2.67 ± 0.093	2.91 ± 0.086	2.54 ± 0.054	2.89 ± 0.072
KWDITTRNSNNLAIVEL [BRR2]	3.16 ± 0.071	2.83 ± 0.059	3.21 ± 0.051	3.54 ± 0.064
KYCEIMGDNSQLDFTEF [SNF2]	3.16 ± 0.085	3.2 ± 0.11	2.87 ± 0.1	3.29 ± 0.073
KYHYKEEWLNTKDPDEQ [CSN9]	2.86 ± 0.086	3.05 ± 0.099	3.05 ± 0.057	3.05 ± 0.093
KYLEQVLDHQRAIPFRR [RPL17A]	2.52 ± 0.059	2.35 ± 0.055	1.61 ± 0.083	1.78 ± 0.043
KYLPHAILKLLENMPHP [PRP8]	2 ± 0.081	1.46 ± 0.056	1.67 ± 0.1	1.61 ± 0.042
LAAIVSTVIEEFTLFMD [YGL172W/NUP49]	2.21 ± 0.052	2.56 ± 0.061	2.1 ± 0.074	2.42 ± 0.055
LAALNVWYGLSDGEDGH [SSN2]	3.19 ± 0.12	3.39 ± 0.11	3.04 ± 0.067	3.12 ± 0.077
LAEEKIRAAGGVVELIA [RPL28]	2.919 ± 0.025	3.072 ± 0.024	2.935 ± 0.023	2.931 ± 0.02
LAEEVVDNIVNKYQYSL [SRP68]	3.09 ± 0.069	2.98 ± 0.069	2.82 ± 0.056	2.92 ± 0.046
LAHYVVTAKLLGFTPGE [FAS1]	1.6 ± 0.13	1.28 ± 0.082	–	1.48 ± 0.12
LAIADVETKLETKVDEL [DSN1]	3.04 ± 0.084	3.09 ± 0.074	3.19 ± 0.05	2.85 ± 0.087
LAKIKEEEMAPYYKYLC [RPN7]	1.28 ± 0.091	1.74 ± 0.25	–	1.37 ± 0.2
LAKSGSTEETTANTGTI [TAF14]	2.61 ± 0.08	2.27 ± 0.089	2.19 ± 0.14	2.39 ± 0.091

Sequence	protein stability index (doa10∆)	protein stability index (pdr5∆)	protein stability index (san1∆)	protein stability index (ubr1∆)
LALETVLIKMVKMLRDN [SIR3]	2.26 ± 0.11	2.06 ± 0.074	2.08 ± 0.079	1.77 ± 0.092
LAMNDDDFLSKKRKAGR [SNF2]	3.41 ± 0.11	3.58 ± 0.084	3.16 ± 0.1	3.52 ± 0.091
LANNVESKLRDDLERLK [RPS18A]	3.45 ± 0.16	3.27 ± 0.16	2.97 ± 0.24	3.41 ± 0.049
LAPARVRRRFARGMTSK [RPS15]	2.99 ± 0.1	3.17 ± 0.094	3.11 ± 0.096	3.03 ± 0.082
LAPNMQLNGNETFSTSA [SNF2]	3.15 ± 0.14	3.17 ± 0.11	3.29 ± 0.068	2.92 ± 0.096
LASPEVKVHMDSETSDP [DIS3]	3.09 ± 0.082	3.38 ± 0.071	3.03 ± 0.071	3.12 ± 0.051
LATDVTTLNEMFRYKTN [PUP3]	1.85 ± 0.14	2.72 ± 0.11	1.91 ± 0.077	2.53 ± 0.1
LATYGLTIDDLGVASFH [FAS2]	2.97 ± 0.055	3.11 ± 0.053	2.92 ± 0.044	3.11 ± 0.036
LAVCDELGNMTMLITGQ [SIN4]	2.21 ± 0.06	2.55 ± 0.046	2.23 ± 0.061	2.02 ± 0.045
LAVTNLLIISCIIFITF [YML031W/NDC1]	1.34 ± 0.034	1.53 ± 0.034	1.42 ± 0.061	1.55 ± 0.03
LAYENKITDKEDLLHYI [POP4]	3.35 ± 0.15	3.31 ± 0.068	3.2 ± 0.068	3.24 ± 0.088
LCEEYLVNNGQSDLEHD [RPN7]	2.78 ± 0.11	2.63 ± 0.11	2.66 ± 0.081	2.48 ± 0.12
LCTLNDSKGSLYSVKFA [YGL100W/SEH1]	2.94 ± 0.13	2.84 ± 0.093	2.62 ± 0.058	2.49 ± 0.071
LDAIDDFIQLKQTAAYR [SSN2]	–	–	–	3.23 ± 0.22
LDDPVLNAIVSKNSPAE [YJR042W/NUP85]	2.9 ± 0.16	1.92 ± 0.1	–	2.01 ± 0.078
LDFQTNKRLCDEIATIQ [RPS17A]	2.53 ± 0.091	2.98 ± 0.071	2.96 ± 0.057	3.18 ± 0.072
LDIPNVSLVVNFQISKK [PRP28]	2.32 ± 0.067	2.51 ± 0.077	2.35 ± 0.087	2.71 ± 0.069
LDKIYTRPISSQVLDLA [SMC2]	1.53 ± 0.079	2.01 ± 0.08	1.25 ± 0.15	1.27 ± 0.054
LDKQIEELVEAIVLPMK [RPT5]	2.97 ± 0.15	3.02 ± 0.15	3.45 ± 0.12	3.43 ± 0.15
LDNFQKSVEKTMIKKTT [SMC3]	–	3.29 ± 0.19	2.89 ± 0.069	3.17 ± 0.075
LDSNFNLQREIDQAHVS [RPN14]	2.49 ± 0.045	2.75 ± 0.061	2.56 ± 0.059	2.65 ± 0.054
LDSQETPSTEESRAQNV [SWI3]	2.41 ± 0.091	2.38 ± 0.12	3.16 ± 0.089	2.37 ± 0.051
LDVSSDRRKARKAYFTA [RPL26A]	1.79 ± 0.081	1.26 ± 0.082	2.42 ± 0.1	2.12 ± 0.07
LEALMDILLCYQKLFSQ [SRB8]	2.98 ± 0.055	3.16 ± 0.052	3.18 ± 0.048	3.05 ± 0.081
LEAVNSMIEKGGDWERR [RPN7]	3.02 ± 0.1	3.1 ± 0.093	2.8 ± 0.08	2.87 ± 0.06
LEDEKMKFQESLKKVDE [SMC4]	–	2.08 ± 0.26	–	–
LEEFEFKHGPMSLINDA [SMD2]	3.32 ± 0.073	3.22 ± 0.062	3.14 ± 0.059	3.23 ± 0.055

— the supplement of paper PMC9732359
